Here are results for 24 sequences from the supplement of paper PMC9170038.

The data set concerns MS2 coat protein. Put plainly: apparent KD of MS2 coat protein; designed switch direction (-1 OFF switch, 1 ON switch): -1; higher = weaker reporter binding. The essentials:
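Designed RNA switches were transcribed on Illumina chips by stalled E. coli RNA polymerase and titrated with SNAP-549-labelled MS2 coat protein from 0.7 or 1.5 nM, doubling to 3 µM. Step length ran from 0.8–1.5 h at the lowest concentration to 10–20 min at the highest. The apparent KD is the median over clusters for each design, from curve-fitted normalised cluster fluorescence.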

The mark [1] stands for this setting: Eterna round: R95, input ligand: microRNA oligo, concentration not stated.

Take “GGCAUCGGAGGAUAUACUUAUGGUGAUACCGGAAGCUUUCUACUUGAGGAUCACCCAAGUAGAAGGCCGAUGCC [jl-ex2.4.84 ViennaUCT mod] (Eterna round: R97, puzzle: Exclusion 2)”: the “apparent KD of MS2 coat protein” value was found to be 9.01 nM (input ligand: FMN 200 uM) and 22.9 nM (input ligand: none).

In the case of “GGCAUGCAAGGAUAUACUUACAGUGAUGUUCGAAUAAGUCUACUUGAGGAUCACCCAAGUAGAAGGUGCAUGCC [Exclusion 2 (Mod3.1 JL EX2 4.74 Vienna UCT mod of Mamaed)] (Eterna round: R97, puzzle: Exclusion 2)”, the “apparent KD of MS2 coat protein” value runs as follows: (input ligand: FMN 200 uM) 62.8 nM; (input ligand: none) 16 nM.

In the case of “GGCAUGUAAGGAUAUGCCACGGAGGCCUUUGGCCUCCGAAAGCAGAAGGUACAUGAGGAUCACCCAUGUGAUAA [jl-ex4-4.59 ViennaUCT mod] (Eterna round: R97, puzzle: Exclusion 4)”, the “apparent KD of MS2 coat protein” value came out at 467 nM (input ligand: FMN 200 uM) and 390 nM (input ligand: none).

Take “GGCCCUAAGGUCAGAUUCACAAGCUUUUUGCUCGUUUUAACAUGAGGAUCACCCAUGUCUAGUGGAUUUGAUCCUUA [Sensor v3, turn-off variant 2 (MOD of Indiso v.7)] (puzzle: Sensor v3, turn-off variant 2)”: the “apparent KD of MS2 coat protein” value was found to be 21.8 nM (Eterna round: R95, input ligand: FMN 200 uM); 20 nM under setting [1]; 18.9 nM (Eterna round: R95, input ligand: none).

“GGCCUCGCGGUCAGGAUAUAUUGCUGUAAUCAGUGGUAGAAGGGACAUGAGGAUCACCCAUGUACCUAGGACAU [BmEX4 C.20] (Eterna round: R97, puzzle: Brourd's mod of Exclusion 4)”: the “apparent KD of MS2 coat protein” value reads like this: (input ligand: FMN 200 uM) 33.4 nM; (input ligand: none) 18.9 nM.

As for “GGCCUGGAAGGAUAUACAUGAGGAUCACCCAUGUGAAGCCGGUGCAAAUUGACACGAUGUAGAAGGUCCAGCCG [Eternabot (L1) Solution 92] (Eterna round: R97, puzzle: Exclusion 3)”, the “apparent KD of MS2 coat protein” value worked out at 467 nM (input ligand: FMN 200 uM) and 172 nM (input ligand: none).

For the sequence “GGCCUGUAAGGAUAUUAGUAGUAGUCAGAAUAGACUAUUACUGAGAAGGUACAUGAGGAUCACCCAUGUUGGCC [Eli x4 4.06] (Eterna round: R97, puzzle: Exclusion 4)”, the “apparent KD of MS2 coat protein” value is, setting by setting: (input ligand: FMN 200 uM) 17.7 nM; (input ligand: none) 14 nM.

Consider “GGCCUUCCGCGAGCUUUUUACAUGAGGAUCACCCAUGUGGUUUUUAGUCUUAUCCCGGGCCCGGUGUCGGGCCCGGG [-32.9, -53.8, A 12%] (Eterna round: R97, puzzle: Sensor, turn-off variant 1)”, for which the “apparent KD of MS2 coat protein” value is, setting by setting: (input ligand: FMN 200 uM) 29.8 nM; (input ligand: none) 30.2 nM.

Turning to “GGCCUUCCGCGAGCUUUUUACAUGAGGAUCACCCAUGUGGUUUUUAGUCUUAUCCGGCCGGCCGUGUGGCCGGCCGG [-32.9, -53.8, A 12%] (Eterna round: R97, puzzle: Sensor, turn-off variant 1)”, the “apparent KD of MS2 coat protein” value (input ligand: FMN 200 uM) is 26.1 nM and the “apparent KD of MS2 coat protein” value (input ligand: none) is 30.4 nM.

Turning to “GGCGAAGUAGGAUAUACAUGAGGAUCACCCAUGUAACCUGAUGGCGUAGGUCUUCUAUGUAGAAGGACUACGCC [jl-ex3-4.39 ViennaUCT mod] (Eterna round: R97, puzzle: Exclusion 3)”, the “apparent KD of MS2 coat protein” value by setting is: (input ligand: FMN 200 uM) 15.9 nM; (input ligand: none) 18.1 nM.

With “GGCGCACAUGAGGAUCACCCAUGUGAGGAUAUUAGGCGAUCGUCGAAAGACGAUAGCCUGAGAAGGCACAUGCC [Eli x1 4.19] (Eterna round: R97, puzzle: Exclusion 1)”, the “apparent KD of MS2 coat protein” value (input ligand: FMN 200 uM) was determined as 154 nM and the “apparent KD of MS2 coat protein” value (input ligand: none) stood at 33.1 nM.

On to “GGCGCCUGAGGAUAUCAGUCUGGAUCAGAAAAGAUCCUGACUGAGAAGGCACAUGAGGAUCACCCAUGUUCGCC [Mat - Exclusion 4 - Eli Mod - D51] (Eterna round: R97, puzzle: Exclusion 4)”, for which the “apparent KD of MS2 coat protein” value was 14.5 nM (input ligand: FMN 200 uM) and 14.7 nM (input ligand: none).

In the case of “GGCUAGUCAGGAUAUACGAACAUGUCAAAAGACGUGAAGGGACAUGAGGAUCACCCAUGUAGAAGGGACUAGCA [salish99-ex2-12] (Eterna round: R96, puzzle: Exclusion 2)”, the “apparent KD of MS2 coat protein” value (input ligand: FMN 200 uM) was determined as 187 nM; the “apparent KD of MS2 coat protein” value (input ligand: microRNA oligo, concentration not stated) was found to be 21 nM; the “apparent KD of MS2 coat protein” value (input ligand: none) was 28 nM.

In the case of “GGCUAGUCAGGAUAUACGAACAUGUCAAAAGACGUGAAGGGACAUGAGGAUCACCCAUGUAGAAGGGACUAGCA [salish99_ex2_r3_001] (puzzle: Exclusion 2)”, the “apparent KD of MS2 coat protein” value under setting [1] is 23.5 nM.

For the sequence “GGGAAGGGAGGAUAUGAGGAAGAGAACAUGAGGAUCACCCAUGUGAGGCCUCAGGAUCGAUCAGAAGGCCCGAUCC [AK-MS2ROC-r4-exclusion5-15] (Eterna round: R97, puzzle: Exclusion 5)”, the “apparent KD of MS2 coat protein” value runs as follows: (input ligand: FMN 200 uM) 297 nM; (input ligand: none) 142 nM.

For “GGGCAAUUAGGAUAUACAUGAGGAUCACCCAUGUGGAAGCCCGGACAGGUAAUCCACUGUAGAAGGGAUUGCCA [Anareor] (puzzle: Exclusion 3)”, the “apparent KD of MS2 coat protein” value under setting [1] came to 10.7 nM.

In the case of “GGGCCCGGUGUGAGGAUAUGCUCGGGUAAAUCUGGGUAGAAGGCACAUGAGGAUCACCCAUGUAAGCCGGGCCC [-34.4, -32.3 kcal, A 23%, 7bis-0] (Eterna round: R97, puzzle: Brourd's mod of Exclusion 4)”, the “apparent KD of MS2 coat protein” value is, setting by setting: (input ligand: FMN 200 uM) 15.2 nM; (input ligand: none) 19.3 nM.

For “GGGCCCGGUGUGAGGAUAUUUGAAGUGAAAGCUUCGGAGAAGGCACAUGAGGAUCACCCAUGUAAGCCGGGCCC [-35.9, -33.8 kcal, A 26%, 3bis-0] (Eterna round: R97, puzzle: Brourd's mod of Exclusion 4)”, the “apparent KD of MS2 coat protein” value is, setting by setting: (input ligand: FMN 200 uM) 16.1 nM; (input ligand: none) 13.4 nM.

Turning to “GGGCGUGAAGGAUAUACAUGAGGAUCACCCAUGUGGGAGGAGAGUGGUGAGGAGGCUGGUAGAAGGUCAGGAGG [JR_Exclusion3_Sub008] (puzzle: Exclusion 3)”, the “apparent KD of MS2 coat protein” value under setting [1] worked out at 27.7 nM.

Turning to “GGGCUGUCAGGAUAUGGGCCCGGGCCCGAAAGGGCCCGGGCCCAGAAGGGACAUGAGGAUCACCCAUGUGGCCC [-51.3, -50.3 kcal, A 22%] (Eterna round: R97, puzzle: Exclusion 4)”, the “apparent KD of MS2 coat protein” value worked out at 43 nM (input ligand: FMN 200 uM) and 37.7 nM (input ligand: none).

“GGGCUUCGAGUCAGGAUAUAAGGCCGCUGGCCCAUUUAGAAGGGACUUGAGGAUCACCCAAGUCACCACGGACG [Geceisbi] (Eterna round: R97, puzzle: Brourd's mod of Exclusion 4)”: the “apparent KD of MS2 coat protein” value was 19.3 nM (input ligand: FMN 200 uM) and 16.8 nM (input ligand: none).

Regarding “GGGUGACAUGAGGAUCACCCAUGUCAGGAUAUGGGCCCGGGCCCGAAAGGGCCCGGGCCCAGAAGGGACUGCCC [-52, -51 kcal, 22%A] (Eterna round: R97, puzzle: Exclusion 1)”, the “apparent KD of MS2 coat protein” value runs as follows: (input ligand: FMN 200 uM) 151 nM; (input ligand: none) 46.5 nM.

Turning to “GGGUGCAGGCUGAGGUCCUACAUGAGGAUCACCCAUGUGGUCCGGUGACGUGAGUCACCGGACUUAGCUCGUCUUGU [salish99_S_TOV1_R5_009] (Eterna round: R97, puzzle: Sensor, turn-off variant 1)”, the “apparent KD of MS2 coat protein” value is 82 nM (input ligand: FMN 200 uM) and 97.8 nM (input ligand: none).

Consider “GGGUUACAUGAGGAUCACCCAUGUGAGGAUAUGAUACUAUGUACUUCGGUACAUAGUAUCAGAAGGCACAUAAA [Ex1-3: 19] (puzzle: Exclusion 1)”, for which, under setting [1], the “apparent KD of MS2 coat protein” value turned out to be 121 nM.
